1 substance from PMC10743472 can be followed below.

This test addresses CLPP, ATP-dependent Clp protease proteolytic subunit, mitochondrial (mouse (endogenous in mouse tissues)) (UniProt O88696). As to the kind of experiment: native gel or EMSA; complexome profiling: mitochondria of WT and CLPP-null mouse testis, brain and heart (sucrose gradients), solubilised with digitonin, blue native electrophoresis on a 3 to 18% gradient gel, 48 slices, label-free mass spectrometry; co-migration read from the profiles.

Chain of CLPP, ATP-dependent Clp protease proteolytic subunit, mitochondrial, O88696 53-272 (natural protein; other documents disagree on this pair) (O88696 53-272): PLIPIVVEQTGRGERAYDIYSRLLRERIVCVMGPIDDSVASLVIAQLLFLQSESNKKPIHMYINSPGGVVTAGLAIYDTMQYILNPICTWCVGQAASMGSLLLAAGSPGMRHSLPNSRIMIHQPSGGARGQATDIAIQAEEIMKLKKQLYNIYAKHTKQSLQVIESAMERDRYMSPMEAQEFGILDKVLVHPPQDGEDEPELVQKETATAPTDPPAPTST

In turn, “CLPP, ATP-dependent Clp protease proteolytic subunit, mitochondrial, O88696 53-272 (natural protein; other documents disagree on this pair)” came in with a stoichiometry N of 7.
